The source of these data is patent US20240417484A1, “ANTIGEN-BINDING POLYPEPTIDES AGAINST CD73” (UNIVERSITÄTSKLINIKUM HAMBURG-EPPENDORF, priority 2021, published 2024).

B1: SB123: CD73-specific alpaca VHH clone, family 1, SEQ ID NO:64; tested as rabbit IgG hcAb (antibody)
heavy: DVQLQESGGGLVQPGGSLTLSCAASGFTLDYLSIGWFRQVPGKEREGVSCINSSGGSTNYADSVKGRLTISRDNAKNTVYLQINSLKPEDTAVYYCAAHKYYYCSNKVAVFDYWGQGTQVTVSS
modifications: left off: a dimerising Fc or GST
notes: tested as rabbit IgG hcAb
B2: SB98: CD73-specific alpaca VHH clone, family 1, SEQ ID NO:62; tested as rabbit IgG hcAb (antibody)
heavy: QVKLQESGGGLVQPGGSLRLSCAASGFTLDYYTIGWFRQAPGKEREGVSCISSSGGITNYADSVKGRLTISRDNAKNTVYLQMNSLKPEDTAVYYCAAQKYYYCSGKAEVYDYWGQGTQVTVSS
modifications: left off: a dimerising Fc or GST
notes: tested as rabbit IgG hcAb
B3: SB108: CD73-specific alpaca VHH clone, family 1, SEQ ID NO:67; tested as rabbit IgG hcAb (antibody)
heavy: QVKLQESGGGLVHSGGSLRLSCAVSGFALDYYTIGWFRQAPGKEREGVSCISSSGSSTNYADSMKGRLTISRDNAKNTVYLQMNSLKPEDTAVYYCAAQRYYYCSDKVAVYDYWGQGTQVTVSS
modifications: left off: a dimerising Fc or GST
notes: tested as rabbit IgG hcAb
B4: SB125: CD73-specific alpaca VHH clone, family 1, SEQ ID NO:68; tested as rabbit IgG hcAb (antibody)
heavy: QVQLQESGGGLVQPGGSLRLSCAVSGFALDYYTIGWFRQAPGKEREGVSCISSSGGSTNYADSVKGRLTISRDNAKNTVYLQMNSLKPEDTAVYYCAAQRYYYCSDKVEVYDYWGQGTQVTVSS
modifications: left off: a dimerising Fc or GST
notes: tested as rabbit IgG hcAb
B5: SB124: CD73-specific alpaca VHH clone, family 1, SEQ ID NO:65; tested as rabbit IgG hcAb (antibody)
heavy: QVQLQESGGGLVQPGGSLRLSCAASGFTLDYYTIGWFRQAPGKEREGVSCVSSSGDRTDYLESVKGRLTISRDNAKNTVYLQMNSLKPEDTGVYYCAAQKYYYCSGKVEVYDYWGQGTQVTVSS
modifications: left off: a dimerising Fc or GST
notes: tested as rabbit IgG hcAb
B6: SB115: CD73-specific alpaca VHH clone, family 1, SEQ ID NO:63; tested as rabbit IgG hcAb (antibody)
heavy: DVQLQASGGGLVQPGGSLRLSCVVSGFTLDYYTIGWFRQAPGKEREGVSCINSSGGVTNYADSVKGRFTISRDNAKNTVYLQMNSLKSEDTAVYYCAAQKYYYCSRKGEVYDSWGQGTQVTVSS
modifications: left off: a dimerising Fc or GST
notes: tested as rabbit IgG hcAb
B7: SB107: CD73-specific alpaca VHH clone, family 1, SEQ ID NO:66; tested as rabbit IgG hcAb (antibody)
heavy: QVQLQESGGGLVQPGGSLRLSCAASGFTLDYLTIGWFRQAPGKEREGVSCINSNGGSTIYADSVKGRLTISRDNAKNTVYLQINSLKPDDTAVYFCAAQKYYYCSGRVEVYDYWGQGIQVTVSS
modifications: left off: a dimerising Fc or GST
notes: tested as rabbit IgG hcAb
B8: SB123 rabbit IgG hcAb (Fc fusion)
heavy: DVQLQESGGGLVQPGGSLTLSCAASGFTLDYLSIGWFRQVPGKEREGVSCINSSGGSTNYADSVKGRLTISRDNAKNTVYLQINSLKPEDTAVYYCAAHKYYYCSNKVAVFDYWGQGTQVTVSS
notes: not shown: hinge and Fc-domains of rabbit IgG
B9: SB142 rabbit IgG hcAb (Fc fusion)
heavy: QVQLVESGGGLVQPGGSLRLSCAASGFTFINYHMSWLRQAPGKGLEWVSEIHSRGDITSYTNSVKGRFTISRDNAKNTLYLQMNSLKFDDTAVYYCARSRDLFGEGEYDYWGRGTQVTVSS
notes: as for B8
B10: SB125 rabbit IgG hcAb (Fc fusion)
heavy: QVQLQESGGGLVQPGGSLRLSCAVSGFALDYYTIGWFRQAPGKEREGVSCISSSGGSTNYADSVKGRLTISRDNAKNTVYLQMNSLKPEDTAVYYCAAQRYYYCSDKVEVYDYWGQGTQVTVSS
notes: as for B8
B11: SB98 rabbit IgG hcAb (Fc fusion)
heavy: QVKLQESGGGLVQPGGSLRLSCAASGFTLDYYTIGWFRQAPGKEREGVSCISSSGGITNYADSVKGRLTISRDNAKNTVYLQMNSLKPEDTAVYYCAAQKYYYCSGKAEVYDYWGQGTQVTVSS
notes: as for B8
B12: SB124 rabbit IgG hcAb (Fc fusion)
heavy: QVQLQESGGGLVQPGGSLRLSCAASGFTLDYYTIGWFRQAPGKEREGVSCVSSSGDRTDYLESVKGRLTISRDNAKNTVYLQMNSLKPEDTGVYYCAAQKYYYCSGKVEVYDYWGQGTQVTVSS
notes: as for B8
B13: SB115 rabbit IgG hcAb (Fc fusion)
heavy: DVQLQASGGGLVQPGGSLRLSCVVSGFTLDYYTIGWFRQAPGKEREGVSCINSSGGVTNYADSVKGRFTISRDNAKNTVYLQMNSLKSEDTAVYYCAAQKYYYCSRKGEVYDSWGQGTQVTVSS
notes: as for B8
B14: SB108 rabbit IgG hcAb (Fc fusion)
heavy: QVKLQESGGGLVHSGGSLRLSCAVSGFALDYYTIGWFRQAPGKEREGVSCISSSGSSTNYADSMKGRLTISRDNAKNTVYLQMNSLKPEDTAVYYCAAQRYYYCSDKVAVYDYWGQGTQVTVSS
notes: as for B8

The target of the first test is T1, soluble human CD73 (Homo sapiens, UniProt P21589).
T1 construct: The ectodomain of CD73 (aa 27-549) was expressed as a recombinant protein with a C-terminal His6× tag; His6 (C); made in house; host or cells: transiently transfected HEK cells
T1 sequence (P21589 27-549): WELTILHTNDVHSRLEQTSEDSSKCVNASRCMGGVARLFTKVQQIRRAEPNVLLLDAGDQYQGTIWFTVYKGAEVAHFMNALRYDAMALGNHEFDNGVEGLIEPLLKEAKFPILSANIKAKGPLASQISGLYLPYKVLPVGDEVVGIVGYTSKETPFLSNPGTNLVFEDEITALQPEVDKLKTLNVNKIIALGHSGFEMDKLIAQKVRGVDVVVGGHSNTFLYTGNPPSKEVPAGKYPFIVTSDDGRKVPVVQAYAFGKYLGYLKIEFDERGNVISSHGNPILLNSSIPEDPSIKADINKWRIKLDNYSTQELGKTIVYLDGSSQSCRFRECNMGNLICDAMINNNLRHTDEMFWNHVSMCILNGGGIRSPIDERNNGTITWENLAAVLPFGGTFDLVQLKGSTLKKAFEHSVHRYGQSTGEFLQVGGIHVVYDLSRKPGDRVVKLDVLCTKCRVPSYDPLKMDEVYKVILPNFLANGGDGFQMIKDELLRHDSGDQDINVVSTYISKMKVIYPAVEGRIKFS
The test can be described thus: Off-rates of soluble CD73 from immobilized Nb-rbIgG hcAb on Octet BLI. The test is classed as binding. Conditions: soluble human CD73 ectodomain 200 ng/μl as analyte; Nb-rbIgG hcAb immobilized on protein A biosensor. How it is done:
(§1) The binding off-rate constants of bivalent hcAbs to human and mouse CD73 protein were determined by […] kinetic analysis on Octet RED96 (ForteBio). Immobilization of rabbit IgG hcAbs on the protein A-biosensor surface was done in HEK-6E cell supernatant, and regeneration of analytes was done with 100 mM Glycin pH=2.5. Recombinant mouse or human CD73 ectodomain was used as analytes and tested at a saturating dose of 200 ng/μl. Sensorgrams were fitted using least square regression in association than dissociation Model in Prism8 (Graphpad).
With B1, the Kdis was 4.3e-05 s⁻¹.

The molecule B2 had a Kdis of 0.0018 s⁻¹. Still for that read-out and setting: the figure for B3 is 9.7e-05 s⁻¹.

As to B4, the Kdis amounted to 0.00058 s⁻¹. B5 displayed a Kdis of 0.0011 s⁻¹. Consider B6, for which the Kdis was found to be 0.00035 s⁻¹.

In a further test the target is T1, soluble human CD73. The experiment in a line: AMP hydrolysis by soluble CD73, DPEA-Napht-Azide fluorescence assay. Type of test: biochemical. Conditions: 50 ng CD73, 30 min pre-incubation with 10 μl hcAb supernatant, 1 mM AMP. As to the method: Recombinant human CD73 (50 ng) was pre-incubated for 30 min with hcAbs at RT in 96 well plates before addition of AMP and DPEA-Napht-Azide. Fluorescence signals were detected every 50 seconds for 30 repeats. ARFU values (>10^3/min) were calculated for a 10 min interval during the linear phase (from 5 min to 15 min) using Prism software (Graphpad). A non-specific rabbit IgG hcAb was used as control.
• 4.1 CD73 catalyzes the hydrolysis of AMP to adenosine. This reaction can be monitored by the shift in fluorescence intensity of DPEA-Napht-Azide. This property was used to determine whether hcAbs could interfere with the enzymatic activity of CD73. Soluble recombinant human CD73 (50 ng) was pre-incubated for 30 min with Nbs or hcAbs (10 μl HEK-6E cell supernatant containing 10-100 μg/ml hcAb) at RT in 96 well plates before addition of AMP (Sigma) to a final concentration of 1 mM and of DPEA-Napht-Azide to a final concentration of 50 μM. • 4.2 Fluorescence signals were recorded in white Nunc MicroWell plates (Nunc, 136101) on a Victor III plate reader (Perkin Elmer) (Exicitation filter: F485, Emission Filter: F535; CW-Lamp energy: 40000, counting time: 0.1 s). Data analyses were performed using Prism (Graphpad).
Soluble recombinant human CD73 (50 ng) was pre-incubated for 30 min with CD73-specific hcAbs or an irrelevant control hcAb (10 μl HEK-6E cell supernatant) at RT in 96 well plates before addition of AMP (Sigma) to a final concentration of 1 mM and of DPEA-Napht-Azide to a final concentration of 50 μM. Fluorescence signals were detected every 50 seconds for 30 repeats. Data analyses were performed using Prism (Graphpad).
Consider B3, for which the “effect on hydrolysis of AMP by soluble CD73” value (“effect on hydrolysis of AMP” below) is “inhibited CD73 catalyzed hydrolysis of AMP”. As for B7, the “effect on hydrolysis of AMP” value is given as “inhibited CD73 catalyzed hydrolysis of AMP”.

As for B6, the “effect on hydrolysis of AMP” value is given as “inhibited CD73 catalyzed hydrolysis of AMP”.

The target in another test is T2, recombinant human CD73 ectodomain (aa 27-549) with C-terminal His6x tag (human, UniProt P21589 27-549).
T2 construct: also called soluble recombinant human CD73; soluble human CD73
T2 sequence: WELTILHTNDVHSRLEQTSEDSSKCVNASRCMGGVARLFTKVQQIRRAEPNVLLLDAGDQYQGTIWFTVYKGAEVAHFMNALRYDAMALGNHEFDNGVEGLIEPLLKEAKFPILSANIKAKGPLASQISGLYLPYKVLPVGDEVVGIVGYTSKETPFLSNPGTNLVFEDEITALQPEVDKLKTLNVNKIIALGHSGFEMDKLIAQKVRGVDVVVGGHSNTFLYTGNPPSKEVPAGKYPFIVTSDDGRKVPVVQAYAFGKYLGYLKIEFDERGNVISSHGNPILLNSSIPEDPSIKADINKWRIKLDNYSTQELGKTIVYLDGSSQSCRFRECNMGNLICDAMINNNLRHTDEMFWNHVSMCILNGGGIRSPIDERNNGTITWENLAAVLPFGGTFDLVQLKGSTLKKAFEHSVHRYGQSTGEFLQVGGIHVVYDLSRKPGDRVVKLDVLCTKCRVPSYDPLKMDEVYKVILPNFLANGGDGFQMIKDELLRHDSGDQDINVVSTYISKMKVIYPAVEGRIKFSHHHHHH
The test can be described thus: BLI (Octet), immobilized Nb-rbIgG hcAb, soluble human CD73 as analyte.
Conditions: not given
As to the method: as §1
As to B8, the off-rate constant (koff) stood at 4.3e-05 s⁻¹. For the molecule B9, the dissociation rate constant (koff) amounted to 0.00036 s⁻¹. Same read-out and setting: the figure for B10 is 0.00058 s⁻¹; for B11 it is 0.0018 s⁻¹; for B12 it is 0.0011 s⁻¹.

Regarding B13, the dissociation rate constant (koff) is 0.00035 s⁻¹.

As to B14, the koff was 9.7e-05 s⁻¹.
